{
  "source": "paper PMC5586245",
  "about": "“2017 publication guidelines for structural modelling of small-angle scattering data from biomolecules in solution: an update” (Acta Crystallographica. Section D, Structural Biology, 2017)",
  "proteins": {"B1": {"name": "glucose isomerase (enzyme)", "chain": "not shown", "notes": "glucose isomerase (xylose isomerase), Streptomyces rubiginosus, UniProt P24300 residues 2-388; Tetramer; M from chemical composition 172912 Da for the tetramer; also called GI; GI (tetramer); source: bought: Hampton Research (HR7-100); stored in diluted form, repeated freeze-thaw cycles; no purification step before the SEC-SAXS column"}},
  "biological_target": "the molecule itself",
  "assay": "SEC-SAXS; inline SEC (5 x 150 mm Superdex S200, 0.45 ml/min) with SAXS at the Australian Synchrotron SAXS/WAXS beamline, sheath-flow cell; 25 mM MOPS, 250 mM NaCl, 50 mM KCl, 2 mM TCEP, 0.1% NaN3 pH 7.5; 22 °C; mass from I(0), Porod volume and fit of crystal structures",
  "data": [
    {"protein": "B1", "values": [
      {"measurement": "stoichiometry N", "value": 4}
    ]}
  ]
}
